Data reported in article doi:10.1101/2020.04.16.045526.

Molecular target: T1, HapR (Vibrio cholerae E7946 (El Tor)) (UniProt Q4F6W7)
T1 sequence: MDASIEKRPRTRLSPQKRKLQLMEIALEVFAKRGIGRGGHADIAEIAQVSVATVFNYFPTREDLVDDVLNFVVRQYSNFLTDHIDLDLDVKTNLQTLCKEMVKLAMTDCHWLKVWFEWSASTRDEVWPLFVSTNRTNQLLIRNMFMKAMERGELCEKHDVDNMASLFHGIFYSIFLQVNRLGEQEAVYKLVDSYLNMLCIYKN
Assay: EMSA
Conditions: 1-2 internal Cy5-dCTP incorporated by PCR

Question: Which binding does the source give for “TAAGCAAACTGTAGCGTAGAAGGTTGACGAAACAAGCAATCATCTGCTAACAATGGTCCGTGTGATACCCATCATCCGGGCCATTTATTTTAGGGATATAAGACTATGAGCTACCAAGAAAAAAATGCA (double strand) [PclpP promoter probe]” here?
Answer: no binding
